Data taken from paper PMC10641069, “Intra- and inter-molecular regulation by intrinsically-disordered regions governs PUF protein RNA binding” (Nature Communications, 2023).
Changes are numbered by the printed parent chain. Names may count otherwise. “And” between values parts separate entries of the source, which are not always exact repeats. Identical values can stand only once. “Also recorded” adds a separate entry of the source. Like-named read-outs stand apart in the source and are kept apart here.

Experiments:
[1] = molecular target: FBF-2 RBD (Caenorhabditis elegans) (UniProt Q09312); experiment: ITC; details: cited from earlier work
[2] = molecular target: T1, FBF-2 RBD + CT (FBF-2 residues 164-632) (C. elegans, UniProt Q09312 164-632); experiment: cell-based or functional assay
T1 sequence (looked up): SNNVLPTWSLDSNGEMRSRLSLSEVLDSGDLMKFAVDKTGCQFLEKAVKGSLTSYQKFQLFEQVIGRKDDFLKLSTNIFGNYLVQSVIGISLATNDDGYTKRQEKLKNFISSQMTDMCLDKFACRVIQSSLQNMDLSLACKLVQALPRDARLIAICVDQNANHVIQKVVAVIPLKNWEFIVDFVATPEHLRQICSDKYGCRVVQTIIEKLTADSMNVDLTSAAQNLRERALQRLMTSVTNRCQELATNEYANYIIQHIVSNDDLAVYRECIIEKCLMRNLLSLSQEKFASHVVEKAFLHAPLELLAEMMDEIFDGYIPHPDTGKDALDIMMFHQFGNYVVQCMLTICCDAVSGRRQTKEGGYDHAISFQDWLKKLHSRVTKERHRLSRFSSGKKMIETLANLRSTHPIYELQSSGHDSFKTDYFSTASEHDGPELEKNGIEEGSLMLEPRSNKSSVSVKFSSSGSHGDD

[3] = molecular target: T2, FBF-2 RBD (FBF-2 residues 164-575) (C. elegans, UniProt Q09312 164-575); experiment: ITC
T2 chain: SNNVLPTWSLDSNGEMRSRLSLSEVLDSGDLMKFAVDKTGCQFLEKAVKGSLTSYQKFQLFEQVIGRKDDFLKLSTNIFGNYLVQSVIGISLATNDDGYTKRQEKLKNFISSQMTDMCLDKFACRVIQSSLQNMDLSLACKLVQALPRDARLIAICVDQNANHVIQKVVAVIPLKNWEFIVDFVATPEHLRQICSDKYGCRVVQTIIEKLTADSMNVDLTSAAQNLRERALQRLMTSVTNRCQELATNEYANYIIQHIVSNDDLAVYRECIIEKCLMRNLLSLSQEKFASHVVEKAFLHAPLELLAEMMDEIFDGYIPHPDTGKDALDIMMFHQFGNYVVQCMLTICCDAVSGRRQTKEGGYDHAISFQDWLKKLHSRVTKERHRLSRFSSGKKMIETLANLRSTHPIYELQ

FBF-2 RBD + CT L610A [4] = molecular target: T3, FBF-2 RBD + CT L610A (C. elegans, UniProt Q09312 164-632, L610A); experiment: ITC
T3 sequence: T1 sequence (looked up) with L447A

[5] = molecular target: T2, FBF-2 RBD (FBF-2 residues 164-575); experiment: ITC
FBF-2 RBD + CT L610A [6] = molecular target: T4, FBF-2 RBD + CT L610A (C. elegans, UniProt Q09312 164-632, L610A); experiment: ITC; peptide (100–400 µM) titrated from the syringe into the cell containing FBF-2 (10–30 µM); 20 °C; 20 mM HEPES pH 7.4, 150 mM NaCl, 0.5 mM TCEP; no RNA; one-site model; mean of two replicates; details: both partners purified
T4 construct: source: E. coli, expressed and purified like wild type proteins; not shown: His6-SUMO, N-terminal, cleaved
T4 sequence (looked up): T1 sequence (looked up) with L447A

C. elegans = details: cited from earlier work; for sterile progeny: fbf-1 loss-of-function background, failure to initiate oogenesis, ref 41 (Wang, et al. 2016); for germline phenotype: animals expressing mutant FBF-2, unpublished, ref personal communication, Kimble lab
Excerpt: Our previous structural and biochemical studies relied on FBF-2^164–575, a fragment with the RBD that lacks its intrinsically disordered C-terminal tail but retains its in vivo RNA-binding specificity (Fig. 1a)[17],[18],[36],[39],[40]. […] A worm strain that expresses truncated FBF-2 lacking the C-terminal 26 residues (607-632) was generated in an fbf-1 loss-of-function background. Approximately 11% of the mutant progeny were sterile due to failure to initiate oogenesis, indicating a germline defect. In contrast, worms expressing full-l ... || In the PUF hub, FBF-1 and FBF-2 play a more prominent role than PUF-3 and PUF-11[55]. FBF-1 and FBF-2 amino acid sequences are 91% identical and have largely overlapping functions. […] When the CT of FBF-1 is replaced with the FBF-2 CT, the chimeric protein produces a progenitor region that m ... || page 6: Reviewer #2 (Remarks to the Author): This manuscript uses structural and biochemical approaches to understand how partner proteins and intrinsically disordered regions (IDRs) impact RNA binding of FBF-2. The crystal structure of FBF-2 CT is novel and the proposed role of the CT in autoinhibition by intramolecular interaction with RBD is interesting. However, why this autoinhibition would be needed in vivo is less clear, especially in regard to the interaction with partner proteins. While the authors also mention this shortcoming, some attempt to address the biological consequences of t ...

LST-1 A LST-1 A (from UniProt P91820)
Kd [1]: 2100 nM

LST-1 B LST-1 B (from UniProt P91820)
Kd [1]: 50 nM

B1: LST-1 A peptide (LST-1 residues 19-50) (peptide, UniProt P91820 19-50, looked up)
chain: STIAYSKSQHEAPKQLLQLRSEIKPLIPLNQP
notes: The tag was cleaved with Ulp1 protease; also called LST-1^19–50; source: E. coli, purified (Ni-NTA, HiTrap Q flow-through, Superdex 75); not shown: His6-SUMO, N-terminal, cleaved
RNA-binding affinity of FBF-2 RBD + CT for gld-1 FBEa RNA by EMSA in the presence of 150 µM LST-1 A [2]: 3 fold
Kd [3]: 2100 nM
Kd (FBF-2 RBD + CT L610A [4]): 2100 nM and 2600 nM
Kd [5]: 2130 nM and 2020 nM
Kd (FBF-2 RBD + CT L610A [6]): 2400 nM

B2: full-length FBF-2: worms expressing full-length FBF-2 in an fbf-1 loss-of-function background (protein, UniProt Q09312 1-632, looked up)
chain: MDQSKMRRTNQFRKTSQKPPSTGIDSYPTPAQSPMAQHETPMWDFNSLNPYFSMLNMNDGINYARHQQNHIVTSRPPTPLTDLMSLRSFQSFPNVFMPVSRSRTSSFIQSDTDSSRLESDDFSQNVRCFSADIDRSKSYGSSKHYHLKYSRPALSRNSRSFTRSNNVLPTWSLDSNGEMRSRLSLSEVLDSGDLMKFAVDKTGCQFLEKAVKGSLTSYQKFQLFEQVIGRKDDFLKLSTNIFGNYLVQSVIGISLATNDDGYTKRQEKLKNFISSQMTDMCLDKFACRVIQSSLQNMDLSLACKLVQALPRDARLIAICVDQNANHVIQKVVAVIPLKNWEFIVDFVATPEHLRQICSDKYGCRVVQTIIEKLTADSMNVDLTSAAQNLRERALQRLMTSVTNRCQELATNEYANYIIQHIVSNDDLAVYRECIIEKCLMRNLLSLSQEKFASHVVEKAFLHAPLELLAEMMDEIFDGYIPHPDTGKDALDIMMFHQFGNYVVQCMLTICCDAVSGRRQTKEGGYDHAISFQDWLKKLHSRVTKERHRLSRFSSGKKMIETLANLRSTHPIYELQSSGHDSFKTDYFSTASEHDGPELEKNGIEEGSLMLEPRSNKSSVSVKFSSSGSHGDD
modifications: full-length
notes: worms expressing full-length FBF-2 in an fbf-1 loss-of-function background
germline progenitor region length (C. elegans; expressed as sole FBF protein, vs FBF-1): shorter germline progenitor regions than FBF-1
sterile progeny (C. elegans): 0%

B3: FBF-2 Y479A: FBF-2 Y479A expressed in animals (Kimble lab, unpublished) (protein, UniProt Q09312 1-632, looked up, variant Y479A)
Fem-3 mRNA-binding factor 2: B2 chain with Y479A
germline phenotype (C. elegans): no defects were detected in germline stem cell self-; also recorded: defect in the sperm-to-oocyte switch

B4: FBF-2 L610A: FBF-2 L610A; attempts to generate animals were unsuccessful (protein, UniProt Q09312 1-632, looked up, variant L610A)
Fem-3 mRNA-binding factor 2: B2 chain with L610A
germline phenotype (C. elegans): dominant sterile

B5: truncated FBF-2: FBF-2 lacking the C-terminal 26 residues (607-632), expressed in worms (protein, UniProt Q09312 1-606, looked up, fragment)
chain: MDQSKMRRTNQFRKTSQKPPSTGIDSYPTPAQSPMAQHETPMWDFNSLNPYFSMLNMNDGINYARHQQNHIVTSRPPTPLTDLMSLRSFQSFPNVFMPVSRSRTSSFIQSDTDSSRLESDDFSQNVRCFSADIDRSKSYGSSKHYHLKYSRPALSRNSRSFTRSNNVLPTWSLDSNGEMRSRLSLSEVLDSGDLMKFAVDKTGCQFLEKAVKGSLTSYQKFQLFEQVIGRKDDFLKLSTNIFGNYLVQSVIGISLATNDDGYTKRQEKLKNFISSQMTDMCLDKFACRVIQSSLQNMDLSLACKLVQALPRDARLIAICVDQNANHVIQKVVAVIPLKNWEFIVDFVATPEHLRQICSDKYGCRVVQTIIEKLTADSMNVDLTSAAQNLRERALQRLMTSVTNRCQELATNEYANYIIQHIVSNDDLAVYRECIIEKCLMRNLLSLSQEKFASHVVEKAFLHAPLELLAEMMDEIFDGYIPHPDTGKDALDIMMFHQFGNYVVQCMLTICCDAVSGRRQTKEGGYDHAISFQDWLKKLHSRVTKERHRLSRFSSGKKMIETLANLRSTHPIYELQSSGHDSFKTDYFSTASEHDGPELEKNGIEEG
sterile progeny (C. elegans): Approximately 11%
